# Experimental data taken from paper PMC9036128, “An anti-ANGPTL3/8 antibody decreases circulating triglycerides by binding to a LPL-inhibitory leucine zipper-like motif” (Journal of Lipid Research, 2022).
# T1: human ANGPTL3 (human, UniProt Q9Y5C1 17-460)
# T1 construct: angiopoietin-like protein 3 (ANGPTL3), human; 460-amino acid protein, CCD 17-210, linker, FLD 241-460; also called free ANGPTL3; ANGPTL3 alone; source: generated as previously described (22, 44)
# T1 sequence (looked up): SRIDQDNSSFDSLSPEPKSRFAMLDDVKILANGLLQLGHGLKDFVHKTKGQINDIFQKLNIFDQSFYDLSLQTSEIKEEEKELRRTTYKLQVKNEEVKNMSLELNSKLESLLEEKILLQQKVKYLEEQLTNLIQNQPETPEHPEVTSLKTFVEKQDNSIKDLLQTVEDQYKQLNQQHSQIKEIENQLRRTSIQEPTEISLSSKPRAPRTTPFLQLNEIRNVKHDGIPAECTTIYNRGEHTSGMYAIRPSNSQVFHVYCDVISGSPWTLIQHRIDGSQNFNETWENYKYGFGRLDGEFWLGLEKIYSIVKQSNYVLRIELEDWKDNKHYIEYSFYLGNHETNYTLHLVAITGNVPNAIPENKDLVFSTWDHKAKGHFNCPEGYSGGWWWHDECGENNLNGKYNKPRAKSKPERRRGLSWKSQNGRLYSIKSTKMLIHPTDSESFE
# T2: ANGPTL8 cotransfected with ANGPTL3 and the anti-ANGPTL3/8 antibody Fab in CHO cells (UniProt Q6UXH0 22-198)
# T2 construct: angiopoietin-like protein 8 (ANGPTL8); Used only for negative stain TEM; source: CHO cells, cotransfected with ANGPTL3 and an anti-ANGPTL3/8 antibody Fab
# T2 sequence (looked up): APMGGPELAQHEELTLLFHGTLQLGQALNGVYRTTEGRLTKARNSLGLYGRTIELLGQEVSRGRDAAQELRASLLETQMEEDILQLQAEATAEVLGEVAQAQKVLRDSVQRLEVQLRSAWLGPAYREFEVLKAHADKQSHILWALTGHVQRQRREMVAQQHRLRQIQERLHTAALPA
# Experiments:
# human ANGPTL3 = target: T1, human ANGPTL3; assay: HDX-MS; purified ANGPTL3/8 complex (12 uM) against ANGPTL3 alone (15 uM) and ANGPTL8 alone (15 uM); pH 7.4, 10 mM sodium phosphate, 150 mM NaCl, 15 C; 10 s, 2 min, 10 min, 60 min; triplicate; settings: both partners purified
# [1] = target: T2, ANGPTL8 cotransfected with ANGPTL3 and …; assay: negative stain transmission electron microscopy; ANGPTL3, ANGPTL8 and anti-ANGPTL3/8 antibody Fab cotransfected in CHO cells; sample diluted 100-fold into TBS, uranyl formate stain; 2D class averaging in three rounds
# [2] = target: the molecule itself; assay: as above
binding result (human ANGPTL3),stoichiometry N [1] [ANGPTL3 per ANGPTL8],Binder,stoichiometry N [2]
binds,–,"human ANGPTL8 as it stands in the ANGPTL3/8 complex (HSA fusion partner removed) (natural protein, UniProt Q6UXH0 22-198, looked up, angiopoietin-like protein 8 (ANGPTL8), human; 198-amino acid protein; same expression construct as HIS-HSA-ANGPTL8; also called ANGPTL8 complexed with ANGPTL3; source: part of the ANGPTL3/8 complex generated as previously described (22, 44); HSA fusion partner removed by proteolysis; not shown: His, N-terminal, cleaved; HSA, N-terminal, cleaved) APMGGPELAQHEELTLLFHGTLQLGQALNGVYRTTEGRLTKARNSLGLYGRTIELLGQEVSRGRDAAQELRASLLETQMEEDILQLQAEATAEVLGEVAQAQKVLRDSVQRLEVQLRSAWLGPAYREFEVLKAHADKQSHILWALTGHVQRQRREMVAQQHRLRQIQERLHTAALPA",–
–,3,"ANGPTL3 cotransfected with ANGPTL8 and the anti-ANGPTL3/8 antibody Fab in CHO cells (natural protein, UniProt Q9Y5C1 17-460, looked up, angiopoietin-like protein 3 (ANGPTL3); Used only for negative stain TEM; source: CHO cells, cotransfected with ANGPTL8 and an anti-ANGPTL3/8 antibody Fab) SRIDQDNSSFDSLSPEPKSRFAMLDDVKILANGLLQLGHGLKDFVHKTKGQINDIFQKLNIFDQSFYDLSLQTSEIKEEEKELRRTTYKLQVKNEEVKNMSLELNSKLESLLEEKILLQQKVKYLEEQLTNLIQNQPETPEHPEVTSLKTFVEKQDNSIKDLLQTVEDQYKQLNQQHSQIKEIENQLRRTSIQEPTEISLSSKPRAPRTTPFLQLNEIRNVKHDGIPAECTTIYNRGEHTSGMYAIRPSNSQVFHVYCDVISGSPWTLIQHRIDGSQNFNETWENYKYGFGRLDGEFWLGLEKIYSIVKQSNYVLRIELEDWKDNKHYIEYSFYLGNHETNYTLHLVAITGNVPNAIPENKDLVFSTWDHKAKGHFNCPEGYSGGWWWHDECGENNLNGKYNKPRAKSKPERRRGLSWKSQNGRLYSIKSTKMLIHPTDSESFE",3
